For this test, the target named is T1, human CD37 protein (human, UniProt P11049 1-281).
T1 construct: Four-pass transmembrane tetraspanin
T1 sequence: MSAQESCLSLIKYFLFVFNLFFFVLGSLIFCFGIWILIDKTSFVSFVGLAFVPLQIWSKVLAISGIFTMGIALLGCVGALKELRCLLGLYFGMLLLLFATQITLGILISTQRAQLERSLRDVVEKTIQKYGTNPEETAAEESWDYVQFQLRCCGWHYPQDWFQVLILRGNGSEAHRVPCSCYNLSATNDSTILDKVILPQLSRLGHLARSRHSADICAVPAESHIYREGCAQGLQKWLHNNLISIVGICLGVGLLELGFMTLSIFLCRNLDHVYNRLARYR
Briefly: flow cytometry on OCI-LY7 cells, FITC anti-human IgG Fc secondary. The procedure: 4)-1 Evaluation of Binding Activity of Humanized Anti-CD37 Antibody-Drug Conjugate The binding activity of the four antibody-drug conjugates (clone names: hmAb-H11L11-DXd, hmAb-H541L11-DXd, hmAb-H551L11-DXd, and hmAb-H11aL11-DXd) produced in Example 2 was evaluated by flow cytometry. CD37-positive human diffuse large B-cell lymphoma cell line OCI-LY7 (DSMZ) cultured in IMDM medium supplemented with 20% FBS under conditions of 37° C. and 5% CO_2 were recovered and centrifuged. After removal of the supernatant, the cells were suspended by the addition of each of the four antibody-drug conjugates or a negative control antibody-drug conjugate (hmAb-IgG1-DXd) produced using human IgG at each concentration. The cells were left standing at 4° C. for 1 hour. The cells were washed twice with PBS supplemented with 5% FBS, and then suspended by the addition of FLUORESCEIN (FITC)-AffiniPure F(ab')2 Fragment Goat Anti-Human IgG, Fcγ Fragment Specific (Jackson ImmunoResearch Laboratories, Inc.) that had been 100-fold diluted with PBS supplemented with 5% FBS. The cells were left standing at 4° C. for 30 minutes. The cells were washed twice with PBS supplemented with 5% FBS, followed by detection using a flow cytometer (BD LSRFortessa TM X-20, BD Biosciences). The data was analyzed using FlowJo (Tree Star, Inc.). In FIG. 6, the abscissa depicts antibody concentration (μg/ml), and the ordinate depicts the amount of the antibody bound by MFI (mean fluorescence intensity).
A general note: In flow cytometry, cells or beads pass a laser one at a time.

Residue numbers refer to the chain shown, from its start.

The results in this text go back to patent US12138315 (Daiichi Sankyo, dated 2024).

B1: hmAb-H11L11-DXd (antibody, V domains shown)
VH: EVQLVQSGAEVKKPGASVKVSCKASGYSFTDYNMYWVRQAPGQSLEWMGYIDPYNGDTTYNQKFQGRVTITADTSTSTAYMELSSLRSEDTAVYYCARSPYGHYAMDYWGQGTLVTVSS
VL: DIQMTQSPSSLSASVGDRVTITCKASQDVSTAVDWYQQKPGKAPKLLINWASTRHTGVPSRFSGSGSGTDFTLTISSLQPEDFATYYCRQHYSTPFTFGQGTKVEIKR
modifications: drug linker on sulfhydryl groups of reduced interchain disulfide cysteines; positions not given; drug linker (maleimidocaproyl-GGFG-DXd, exatecan derivative) on sulfhydryl groups of reduced interchain disulfide cysteines by thioether bond; average number of conjugated drug molecules per antibody 7.4 to 7.7 (common procedure F); positions not given
notes: also called hmAb-H11L11-ADC
Regarding B1, the binding result was “binds”.

B2: hmAb-H11L11 (antibody, human IgG1, kappa, V domains shown)
VH: B1 VH
VL: B1 VL
notes: Unconjugated humanized IgG1 kappa antibody derived from mouse HH1; also called anti-CD37 humanized antibody having hmAb-H11 as a heavy chain and hmAb-L11 as a light chain
Regarding B2, the binding result is recorded as “binds”.

B3: hmAb-H541L11-DXd (antibody, human IgG1, kappa, V domains shown)
VH: B1 VH with I70M, A72R, T76I, S85R, E89D, L114T
VL: B1 VL
modifications: drug linker on sulfhydryl groups of reduced interchain disulfide cysteines; positions not given; drug linker (maleimidocaproyl-GGFG-DXd, exatecan derivative) on sulfhydryl groups of reduced interchain disulfide cysteines by thioether bond; average number of conjugated drug molecules per antibody 7.8 (common procedure F); positions not given
notes: also called hmAb-H541L11-ADC
Regarding B3, the binding result is “binds”.

B4: hmAb-H541L11 (antibody, human IgG1, kappa, V domains shown)
VH: B1 VH with I70M, A72R, T76I, S85R, E89D, L114T
VL: B1 VL
notes: Unconjugated humanized IgG1 kappa antibody; also called anti-CD37 humanized antibody having hmAb-H541 as a heavy chain and hmAb-L11 as a light chain
For the molecule B4, the binding result is recorded as “binds”.

B5: hmAb-H551L11-DXd (antibody, human IgG1, kappa, V domains shown)
VH: B1 VH with I70M, A72R, T76S, S85R, E89D, L114T
VL: B1 VL
modifications: drug linker on sulfhydryl groups of reduced interchain disulfide cysteines; positions not given; drug linker (maleimidocaproyl-GGFG-DXd, exatecan derivative) on sulfhydryl groups of reduced interchain disulfide cysteines by thioether bond; average number of conjugated drug molecules per antibody 7.8 (common procedure F); positions not given
notes: also called hmAb-H551L11-ADC
With B5, the binding result was “binds”.

B6: hmAb-H551L11 (antibody, human IgG1, kappa, V domains shown)
VH: B1 VH with I70M, A72R, T76S, S85R, E89D, L114T
VL: B1 VL
notes: Unconjugated humanized IgG1 kappa antibody; also called anti-CD37 humanized antibody having hmAb-H551 as a heavy chain and hmAb-L11 as a light chain
With B6, the binding result is “binds”.

B7: hmAb-H11aL11-DXd (antibody, human IgG1, kappa, V domains shown)
VH: B1 VH with T74K, T76K
VL: B1 VL
modifications: drug linker on sulfhydryl groups of reduced interchain disulfide cysteines; positions not given; drug linker (maleimidocaproyl-GGFG-DXd, exatecan derivative) on sulfhydryl groups of reduced interchain disulfide cysteines by thioether bond; average number of conjugated drug molecules per antibody 7.6 (common procedure F); positions not given
notes: also called hmAb-H11aL11-ADC
On to B7, for which the binding result is listed as “binds”.

B8: hmAb-H11aL11 (antibody, human IgG1, kappa, V domains shown)
VH: B1 VH with T74K, T76K
VL: B1 VL
notes: Unconjugated humanized IgG1 kappa antibody; also called anti-CD37 humanized antibody having hmAb-H11a as a heavy chain and hmAb-L11 as a light chain
Consider B8, for which the binding result was “binds”.
